Assay results as given in publication PMC12891897, “Blocking TRIM47-mediated HNF4α degradation suppresses hepatocellular carcinoma progression” (Acta Pharmaceutica Sinica. B, 2025).

Tests used:
[1] = target: Flag-tagged TRIM47 (tripartite motif 47), full length (amino acids 1–638), Q96LD4-1; assay: Co-IP (IP-Flag) and Western blotting, V5 band quantified; details: HEK293T cells, co-transfected for 48 h; parent: 1
[2] = target: V5-tagged HNF4α (hepatocyte nuclear factor 4alpha), full length (amino acids 1–474), P41235-1; assay: as above; details: HEK293T cells, transfected for 48 h; parent: 1

Sequence of Flag-tagged TRIM47 (tripartite motif 47), full length (amino acids 1–638), Q96LD4-1 (Q96LD4 whole entry, the tested form may be a part): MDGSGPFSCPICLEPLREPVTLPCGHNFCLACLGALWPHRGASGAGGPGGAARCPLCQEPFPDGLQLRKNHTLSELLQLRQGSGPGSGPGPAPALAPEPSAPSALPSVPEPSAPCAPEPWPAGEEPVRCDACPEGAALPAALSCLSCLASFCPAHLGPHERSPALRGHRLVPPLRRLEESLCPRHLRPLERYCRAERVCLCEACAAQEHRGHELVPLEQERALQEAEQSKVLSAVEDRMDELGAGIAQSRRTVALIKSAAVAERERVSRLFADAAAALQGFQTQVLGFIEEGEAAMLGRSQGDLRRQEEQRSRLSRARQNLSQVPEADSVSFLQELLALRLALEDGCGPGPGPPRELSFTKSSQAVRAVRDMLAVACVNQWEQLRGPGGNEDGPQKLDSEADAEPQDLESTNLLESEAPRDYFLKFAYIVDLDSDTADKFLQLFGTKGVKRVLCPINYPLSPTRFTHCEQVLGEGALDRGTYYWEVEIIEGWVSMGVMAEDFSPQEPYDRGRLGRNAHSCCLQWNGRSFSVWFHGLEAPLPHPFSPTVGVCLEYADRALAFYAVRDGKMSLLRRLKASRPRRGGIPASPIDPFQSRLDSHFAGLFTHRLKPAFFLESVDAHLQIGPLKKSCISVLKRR

V5-tagged HNF4α (hepatocyte nuclear factor 4alpha), full length (amino acids 1–474) (from UniProt P41235-1) W349A
ratio to parent [1]: 0.49 Fold

V5-tagged HNF4α (hepatocyte nuclear factor 4alpha), full length (amino acids 1–474) (from UniProt P41235-1) E353A
ratio to parent [1]: 0.38 Fold

Flag-tagged TRIM47 (tripartite motif 47), full length (amino acids 1–638) (from UniProt Q96LD4-1) K600A
ratio to parent [2]: 0.83 Fold

V5-tagged HNF4α (hepatocyte nuclear factor 4alpha), full length (amino acids 1–474) (from UniProt P41235-1) K342A; W349A; E353A
ratio to parent [1]: 0.23 Fold

Flag-tagged TRIM47 (tripartite motif 47), full length (amino acids 1–638) (from UniProt Q96LD4-1) K534A
ratio to parent [2]: 0.79 Fold

Flag-tagged TRIM47 (tripartite motif 47), full length (amino acids 1–638) (from UniProt Q96LD4-1) K534A; K600A
ratio to parent [2]: 0.49 Fold

V5-tagged HNF4α (hepatocyte nuclear factor 4alpha), full length (amino acids 1–474) (from UniProt P41235-1) K342A
ratio to parent [1]: 0.56 Fold
